Data reported in paper PMC10980349 (The Plant Cell, 2023).

Assays:
[1] = target: microtubules assembled from porcine tubulin (porcine) (UniProt P02550); assay: co-sedimentation
SEC-MALS = target: the molecule itself; assay: SEC-MALS

B1: SPR2(1 to 500)-GFP (domain or fragment)
chain: MSTPTTSGSAAKPTRPARSSSLATRSCSNSGSLTSFQAMVELKQKILTSISKLADRDTYQIAVEDLEKTIQSLTPETLPMFLNCLYDSCSDPKPAVKKECLHLLSYVCSLHCDSTAAHLTKIIAQIVKRLKDSDSGVRDACRDTIGALSGIYLKGKEEGTNTGSASLAVGLFVKPLFEAMGEQNKVVQSGASMCMARMVESAASPPVTSFQKLCPRICKLLSNSSFLAKASLLPVVSSLSQVGAIAPQSLESLLESIHDCLGSTDWVTRKAAAETLTALASHSSGLIKEKTDSTITVLETCRFDKIKPVRESVTEALQLWKKISGKYVDGASDDSKLSASEQLGSEKNGEKRSNLADLMKKEASDGSTLSPDSASKGKGCFPEKAVGLLKKKAPVLSDKDFNPEFFQRLERRQSVEVVVPRRCKNNDEEESGLDDLNAMGSSNRLKNTQADDKQVKGRFDGNGSQARTSGDDKAGVVNGKETPGHHAPVSNTDNQSEGSF
- Kd [1]: 17.4 µM

B2: full-length SPR2 (SEC-MALS sample) (natural protein, Arabidopsis thaliana, UniProt Q9T041 1-864, looked up)
chain: MSTPTTSGSAAKPTRPARSSSLATRSCSNSGSLTSFQAMVELKQKILTSISKLADRDTYQIAVEDLEKTIQSLTPETLPMFLNCLYDSCSDPKPAVKKECLHLLSYVCSLHCDSTAAHLTKIIAQIVKRLKDSDSGVRDACRDTIGALSGIYLKGKEEGTNTGSASLAVGLFVKPLFEAMGEQNKVVQSGASMCMARMVESAASPPVTSFQKLCPRICKLLSNSSFLAKASLLPVVSSLSQVGAIAPQSLESLLESIHDCLGSTDWVTRKAAAETLTALASHSSGLIKEKTDSTITVLETCRFDKIKPVRESVTEALQLWKKISGKYVDGASDDSKLSASEQLGSEKNGEKRSNLADLMKKEASDGSTLSPDSASKGKGCFPEKAVGLLKKKAPVLSDKDFNPEFFQRLERRQSVEVVVPRRCKNNDEEESGLDDLNAMGSSNRLKNTQADDKQVKGRFDGNGSQARTSGDDKAGVVNGKETPGHHAPVSNTDNQSEGSFTSNRGNWSAIQRQLLQLERQQTNLMNMLQEFIGGSHDSMVTLEGRVRGLERIVEDMARDLSISSGRRANLTAGFGKYNSFANYPTGKYNGRAPGERGSQTDGAMRGRMWNSDMADDWFIPPHAASRNGQAGPRRSPRSEQYENEHMGNGRRGWDNKASGTIRFGEGPSARSVWQASKDEATLEAIRVAGEDGAVPRPTRVAVAPEAEAMGDDDNEGQERDPIWVSWSNAMHSLRVGDIDAAYAEVLCAGDQHLVIKLMDKTGPSLDQMSNEIANEALNFISQFLLDHSLYDICLSWSQQLLELVLQDGADTFGVPMELKTEILYNLQDACSTMDPPEDWEGPAPEQLVVQLASVWEIDLQQFDK
- stoichiometry N (SEC-MALS): 4
